Reference: patent US20030149244A1

Legend:
[1] = target: FcεRI-bound human IgE (IgE loaded on CHO 3D10 cells expressing the FcεRI alpha chain) (human) (UniProt P01854); experiment: FACS on IgE-loaded CHO 3D10 cells (FIG. 4), arithmetic/linear scale
[2] = target: FcεRI-bound human IgE (IgE loaded on CHO 3D10 cells expressing the FcεRI alpha chain) (human) (UniProt P01854); experiment: FACS on IgE-loaded CHO 3D10 cells (FIG. 4); called nonspecific by the filing

Chain of FcεRI-bound human IgE (IgE loaded on CHO 3D10 cells expressing the FcεRI alpha chain) (human) (P01854 whole entry, chain 1 of 2): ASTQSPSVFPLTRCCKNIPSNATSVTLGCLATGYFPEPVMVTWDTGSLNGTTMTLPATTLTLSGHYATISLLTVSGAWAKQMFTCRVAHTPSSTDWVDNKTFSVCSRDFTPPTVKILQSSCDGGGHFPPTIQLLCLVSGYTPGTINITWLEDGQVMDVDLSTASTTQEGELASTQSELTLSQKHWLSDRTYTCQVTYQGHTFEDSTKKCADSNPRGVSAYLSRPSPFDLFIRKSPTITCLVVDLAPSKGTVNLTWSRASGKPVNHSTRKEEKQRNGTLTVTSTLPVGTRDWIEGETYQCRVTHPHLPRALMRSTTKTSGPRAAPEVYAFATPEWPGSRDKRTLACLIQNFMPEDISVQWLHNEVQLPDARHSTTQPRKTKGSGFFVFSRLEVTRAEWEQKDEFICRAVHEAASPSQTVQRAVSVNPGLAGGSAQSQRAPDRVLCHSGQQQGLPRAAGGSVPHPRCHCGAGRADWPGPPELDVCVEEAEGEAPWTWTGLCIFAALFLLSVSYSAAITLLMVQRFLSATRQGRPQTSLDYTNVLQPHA
Chain of FcεRI-bound human IgE (IgE loaded on CHO 3D10 cells expressing the FcεRI alpha chain) (human) (P12319 26-257, chain 2 of 2, further chain): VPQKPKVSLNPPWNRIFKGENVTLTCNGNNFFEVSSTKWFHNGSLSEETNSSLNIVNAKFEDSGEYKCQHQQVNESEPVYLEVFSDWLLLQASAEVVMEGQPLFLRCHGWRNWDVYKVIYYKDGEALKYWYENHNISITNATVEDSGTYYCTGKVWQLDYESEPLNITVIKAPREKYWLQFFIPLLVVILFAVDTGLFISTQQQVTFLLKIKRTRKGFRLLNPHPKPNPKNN

mean channel fluorescence at 0.1 µg/ml [1]: 7.3
nonspecific background binding (percent) [2]: 10%
Substance: MOPC21 (antibody)
